According to patent US20260001928A1 (CORTERIA PHARMACEUTICALS, priority 2022, published 2026):
*1 amine or outer side, *2 acyl side, *3 side chain or, on linkers, in order; H or OH if unused. Where no end group is shown, it is not given here. Side-chain parts run from the residue outwards. [ ]: non-standard residue; d: D form. The star is where a group is joined. C20 diacid = O=C(O)CCCCCCCCCCCCCCCCCCC(=O)*; C18 diacid = O=C(O)CCCCCCCCCCCCCCCCC(=O)*; γGlu = O=C(O)[C@H](CCC(=O)[*:2])N[*:1]; Myristoyl = CCCCCCCCCCCCCC(=O)*; Lauroyl = CCCCCCCCCCCC(=O)*; Api = NC1(C(=O)O)CCNCC1; AEEA = NCCOCCOCC(=O)O; Aib = CC(C)(N)C(=O)O

T1: CRF1R receptor (UniProt P34998 24-415, limits assumed)
T1 sequence (looked up): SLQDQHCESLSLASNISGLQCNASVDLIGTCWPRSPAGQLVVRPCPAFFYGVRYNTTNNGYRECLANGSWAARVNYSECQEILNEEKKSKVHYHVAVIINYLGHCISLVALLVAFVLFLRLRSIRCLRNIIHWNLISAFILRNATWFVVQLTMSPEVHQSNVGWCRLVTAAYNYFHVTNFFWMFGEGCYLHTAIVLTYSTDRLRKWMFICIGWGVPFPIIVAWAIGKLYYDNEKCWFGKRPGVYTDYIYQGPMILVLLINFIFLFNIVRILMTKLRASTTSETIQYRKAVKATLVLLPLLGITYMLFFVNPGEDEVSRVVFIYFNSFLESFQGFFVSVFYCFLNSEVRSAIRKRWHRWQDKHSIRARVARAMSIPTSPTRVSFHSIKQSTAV


Key:
[1] = biological target: human corticotropin-releasing factor 2a (CRF2a receptor) (human), Q13324; assay: cell-based or functional assay
Chain of human corticotropin-releasing factor 2a (CRF2a receptor) (human), Q13324 (Q13324 20-411): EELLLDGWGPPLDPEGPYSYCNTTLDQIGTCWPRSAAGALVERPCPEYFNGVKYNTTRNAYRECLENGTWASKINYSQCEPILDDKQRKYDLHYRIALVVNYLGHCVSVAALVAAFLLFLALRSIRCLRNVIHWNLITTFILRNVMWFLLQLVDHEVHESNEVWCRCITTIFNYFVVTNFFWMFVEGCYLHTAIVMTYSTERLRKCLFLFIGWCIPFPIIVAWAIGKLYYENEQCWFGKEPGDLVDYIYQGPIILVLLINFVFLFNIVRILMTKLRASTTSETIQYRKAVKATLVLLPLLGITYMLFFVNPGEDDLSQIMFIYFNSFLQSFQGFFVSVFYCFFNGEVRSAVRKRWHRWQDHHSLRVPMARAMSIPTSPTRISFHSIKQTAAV

[2] = biological target: T1, CRF1R receptor; assay: cell-based or functional assay

Row | Binder | EC50 [nM] (cAMP) [1] | Emax (% I) [2] | EC50 [2]
1 | Ac-VLSLD[dV]PIKLK([AEEA-AEEA-γGlu-C18 diacid])KILLEQEKQKKQREQAETNKQILAQV-NH2 (SMILES CC[C@H](C)[C@H](NC(=O)[C@H](CCC(N)=O)NC(=O)[C@H](CCCCN)NC(=O)[C@H](CC(N)=O)NC(=O)[C@@H](NC(=O)[C@H](CCC(=O)O)NC(=O)[C@H](C)NC(=O)[C@H](CCC(N)=O)NC(=O)[C@H](CCC(=O)O)NC(=O)[C@H](CCCNC(=N)N)NC(=O)[C@H](CCC(N)=O)NC(=O)[C@H](CCCCN)NC(=O)[C@H](CCCCN)NC(=O)[C@H](CCC(N)=O)NC(=O)[C@H](CCCCN)NC(=O)[C@H](CCC(=O)O)NC(=O)[C@H](CCC(N)=O)NC(=O)[C@H](CCC(=O)O)NC(=O)[C@H](CC(C)C)NC(=O)[C@H](CC(C)C)NC(=O)[C@@H](NC(=O)[C@H](CCCCN)NC(=O)[C@H](CCCCNC(=O)COCCOCCNC(=O)COCCOCCNC(=O)CC[C@H](NC(=O)CCCCCCCCCCCCCCCCC(=O)O)C(=O)O)NC(=O)[C@H](CC(C)C)NC(=O)[C@H](CCCCN)NC(=O)[C@@H](NC(=O)[C@@H]1CCCN1C(=O)[C@H](NC(=O)[C@H](CC(=O)O)NC(=O)[C@H](CC(C)C)NC(=O)[C@H](CO)NC(=O)[C@H](CC(C)C)NC(=O)[C@@H](NC(C)=O)C(C)C)C(C)C)[C@@H](C)CC)[C@@H](C)CC)[C@@H](C)O)C(=O)N[C@@H](CC(C)C)C(=O)N[C@@H](C)C(=O)N[C@@H](CCC(N)=O)C(=O)N[C@H](C(N)=O)C(C)C) [SEQ ID NO 92] | 2.3 nM | 5% | 
2 | VLSLD[dV]PIKLK([AEEA-AEEA-γGlu-C18 diacid])KILLEQEKQKKQREQAETNKQILAQV-NH2 (N-terminus assumed; SMILES CC[C@H](C)[C@H](NC(=O)[C@H](CCC(N)=O)NC(=O)[C@H](CCCCN)NC(=O)[C@H](CC(N)=O)NC(=O)[C@@H](NC(=O)[C@H](CCC(=O)O)NC(=O)[C@H](C)NC(=O)[C@H](CCC(N)=O)NC(=O)[C@H](CCC(=O)O)NC(=O)[C@H](CCCNC(=N)N)NC(=O)[C@H](CCC(N)=O)NC(=O)[C@H](CCCCN)NC(=O)[C@H](CCCCN)NC(=O)[C@H](CCC(N)=O)NC(=O)[C@H](CCCCN)NC(=O)[C@H](CCC(=O)O)NC(=O)[C@H](CCC(N)=O)NC(=O)[C@H](CCC(=O)O)NC(=O)[C@H](CC(C)C)NC(=O)[C@H](CC(C)C)NC(=O)[C@@H](NC(=O)[C@H](CCCCN)NC(=O)[C@H](CCCCNC(=O)COCCOCCNC(=O)COCCOCCNC(=O)CC[C@H](NC(=O)CCCCCCCCCCCCCCCCC(=O)O)C(=O)O)NC(=O)[C@H](CC(C)C)NC(=O)[C@H](CCCCN)NC(=O)[C@@H](NC(=O)[C@@H]1CCCN1C(=O)[C@H](NC(=O)[C@H](CC(=O)O)NC(=O)[C@H](CC(C)C)NC(=O)[C@H](CO)NC(=O)[C@H](CC(C)C)NC(=O)[C@@H](N)C(C)C)C(C)C)[C@@H](C)CC)[C@@H](C)CC)[C@@H](C)O)C(=O)N[C@@H](CC(C)C)C(=O)N[C@@H](C)C(=O)N[C@@H](CCC(N)=O)C(=O)N[C@H](C(N)=O)C(C)C) [SEQ ID NO 93] | 5.08 nM | 6% | 

Continued, values first:

Row | EC50 [nM] (cAMP) [1] | Emax (% I) [2] | EC50 [2] | Binder
3 | 0.07 nM | 66% | 39.5 nM | Lauroyl-VLSLD[dV]PIKLK([γGlu-C20 diacid])KILLEQEKQKKQREQAETN[Aib]QILAQV-NH2 (SMILES CCCCCCCCCCCC(=O)N[C@H](C(=O)N[C@@H](CC(C)C)C(=O)N[C@@H](CO)C(=O)N[C@@H](CC(C)C)C(=O)N[C@@H](CC(=O)O)C(=O)N[C@@H](C(=O)N1CCC[C@H]1C(=O)N[C@H](C(=O)N[C@@H](CCCCN)C(=O)N[C@@H](CC(C)C)C(=O)N[C@@H](CCCCNC(=O)CC[C@H](NC(=O)CCCCCCCCCCCCCCCCCCC(=O)O)C(=O)O)C(=O)N[C@@H](CCCCN)C(=O)N[C@H](C(=O)N[C@@H](CC(C)C)C(=O)N[C@@H](CC(C)C)C(=O)N[C@@H](CCC(=O)O)C(=O)N[C@@H](CCC(N)=O)C(=O)N[C@@H](CCC(=O)O)C(=O)N[C@@H](CCCCN)C(=O)N[C@@H](CCC(N)=O)C(=O)N[C@@H](CCCCN)C(=O)N[C@@H](CCCCN)C(=O)N[C@@H](CCC(N)=O)C(=O)N[C@@H](CCCNC(=N)N)C(=O)N[C@@H](CCC(=O)O)C(=O)N[C@@H](CCC(N)=O)C(=O)N[C@@H](C)C(=O)N[C@@H](CCC(=O)O)C(=O)N[C@H](C(=O)N[C@@H](CC(N)=O)C(=O)NC(C)(C)C(=O)N[C@@H](CCC(N)=O)C(=O)N[C@H](C(=O)N[C@@H](CC(C)C)C(=O)N[C@@H](C)C(=O)N[C@@H](CCC(N)=O)C(=O)N[C@H](C(N)=O)C(C)C)[C@@H](C)CC)[C@@H](C)O)[C@@H](C)CC)[C@@H](C)CC)C(C)C)C(C)C) [SEQ ID NO 224]
4 | 0.2 nM | 97% | 1.74 nM | Ac-IVLSLD[dV]PIGLK([γGlu-C20 diacid])KILLEQEKQKKQREQAETN[Api]QILAQV-NH2 (SMILES CC[C@H](C)[C@H](NC(C)=O)C(=O)N[C@H](C(=O)N[C@@H](CC(C)C)C(=O)N[C@@H](CO)C(=O)N[C@@H](CC(C)C)C(=O)N[C@@H](CC(=O)O)C(=O)N[C@@H](C(=O)N1CCC[C@H]1C(=O)N[C@H](C(=O)NCC(=O)N[C@@H](CC(C)C)C(=O)N[C@@H](CCCCNC(=O)CC[C@H](NC(=O)CCCCCCCCCCCCCCCCCCC(=O)O)C(=O)O)C(=O)N[C@@H](CCCCN)C(=O)N[C@H](C(=O)N[C@@H](CC(C)C)C(=O)N[C@@H](CC(C)C)C(=O)N[C@@H](CCC(=O)O)C(=O)N[C@@H](CCC(N)=O)C(=O)N[C@@H](CCC(=O)O)C(=O)N[C@@H](CCCCN)C(=O)N[C@@H](CCC(N)=O)C(=O)N[C@@H](CCCCN)C(=O)N[C@@H](CCCCN)C(=O)N[C@@H](CCC(N)=O)C(=O)N[C@@H](CCCNC(=N)N)C(=O)N[C@@H](CCC(=O)O)C(=O)N[C@@H](CCC(N)=O)C(=O)N[C@@H](C)C(=O)N[C@@H](CCC(=O)O)C(=O)N[C@H](C(=O)N[C@@H](CC(N)=O)C(=O)NC1(C(=O)N[C@@H](CCC(N)=O)C(=O)N[C@H](C(=O)N[C@@H](CC(C)C)C(=O)N[C@@H](C)C(=O)N[C@@H](CCC(N)=O)C(=O)N[C@H](C(N)=O)C(C)C)[C@@H](C)CC)CCNCC1)[C@@H](C)O)[C@@H](C)CC)[C@@H](C)CC)C(C)C)C(C)C) [SEQ ID NO 227]
5 | 0.18 nM | 82% | 42.1 nM | Ac-IVLSLD[dV]PIGLK([γGlu-C20 diacid])KILLEQEKQKKQREQAETN[Aib]QILAQV-NH2 (SMILES CC[C@H](C)[C@H](NC(C)=O)C(=O)N[C@H](C(=O)N[C@@H](CC(C)C)C(=O)N[C@@H](CO)C(=O)N[C@@H](CC(C)C)C(=O)N[C@@H](CC(=O)O)C(=O)N[C@@H](C(=O)N1CCC[C@H]1C(=O)N[C@H](C(=O)NCC(=O)N[C@@H](CC(C)C)C(=O)N[C@@H](CCCCNC(=O)CC[C@H](NC(=O)CCCCCCCCCCCCCCCCCCC(=O)O)C(=O)O)C(=O)N[C@@H](CCCCN)C(=O)N[C@H](C(=O)N[C@@H](CC(C)C)C(=O)N[C@@H](CC(C)C)C(=O)N[C@@H](CCC(=O)O)C(=O)N[C@@H](CCC(N)=O)C(=O)N[C@@H](CCC(=O)O)C(=O)N[C@@H](CCCCN)C(=O)N[C@@H](CCC(N)=O)C(=O)N[C@@H](CCCCN)C(=O)N[C@@H](CCCCN)C(=O)N[C@@H](CCC(N)=O)C(=O)N[C@@H](CCCNC(=N)N)C(=O)N[C@@H](CCC(=O)O)C(=O)N[C@@H](CCC(N)=O)C(=O)N[C@@H](C)C(=O)N[C@@H](CCC(=O)O)C(=O)N[C@H](C(=O)N[C@@H](CC(N)=O)C(=O)NC(C)(C)C(=O)N[C@@H](CCC(N)=O)C(=O)N[C@H](C(=O)N[C@@H](CC(C)C)C(=O)N[C@@H](C)C(=O)N[C@@H](CCC(N)=O)C(=O)N[C@H](C(N)=O)C(C)C)[C@@H](C)CC)[C@@H](C)O)[C@@H](C)CC)[C@@H](C)CC)C(C)C)C(C)C) [SEQ ID NO 226]
6 | 0.09 nM | 70% | 73.4 nM | Myristoyl-VLSLD[dV]PIKLK([γGlu-C20 diacid])KILLEQEKQKKQREQAETN[Aib]QILAQV-NH2 (SMILES CCCCCCCCCCCCCC(=O)N[C@H](C(=O)N[C@@H](CC(C)C)C(=O)N[C@@H](CO)C(=O)N[C@@H](CC(C)C)C(=O)N[C@@H](CC(=O)O)C(=O)N[C@@H](C(=O)N1CCC[C@H]1C(=O)N[C@H](C(=O)N[C@@H](CCCCN)C(=O)N[C@@H](CC(C)C)C(=O)N[C@@H](CCCCNC(=O)CC[C@H](NC(=O)CCCCCCCCCCCCCCCCCCC(=O)O)C(=O)O)C(=O)N[C@@H](CCCCN)C(=O)N[C@H](C(=O)N[C@@H](CC(C)C)C(=O)N[C@@H](CC(C)C)C(=O)N[C@@H](CCC(=O)O)C(=O)N[C@@H](CCC(N)=O)C(=O)N[C@@H](CCC(=O)O)C(=O)N[C@@H](CCCCN)C(=O)N[C@@H](CCC(N)=O)C(=O)N[C@@H](CCCCN)C(=O)N[C@@H](CCCCN)C(=O)N[C@@H](CCC(N)=O)C(=O)N[C@@H](CCCNC(=N)N)C(=O)N[C@@H](CCC(=O)O)C(=O)N[C@@H](CCC(N)=O)C(=O)N[C@@H](C)C(=O)N[C@@H](CCC(=O)O)C(=O)N[C@H](C(=O)N[C@@H](CC(N)=O)C(=O)NC(C)(C)C(=O)N[C@@H](CCC(N)=O)C(=O)N[C@H](C(=O)N[C@@H](CC(C)C)C(=O)N[C@@H](C)C(=O)N[C@@H](CCC(N)=O)C(=O)N[C@H](C(N)=O)C(C)C)[C@@H](C)CC)[C@@H](C)O)[C@@H](C)CC)[C@@H](C)CC)C(C)C)C(C)C) [SEQ ID NO 225]
